This experiment has as its target human HSF2-YFP (human) (UniProt Q03933). The experiment is described as follows: fluorescent three-hybrid assay.

Sequence of human HSF2-YFP (human) (Q03933 whole entry): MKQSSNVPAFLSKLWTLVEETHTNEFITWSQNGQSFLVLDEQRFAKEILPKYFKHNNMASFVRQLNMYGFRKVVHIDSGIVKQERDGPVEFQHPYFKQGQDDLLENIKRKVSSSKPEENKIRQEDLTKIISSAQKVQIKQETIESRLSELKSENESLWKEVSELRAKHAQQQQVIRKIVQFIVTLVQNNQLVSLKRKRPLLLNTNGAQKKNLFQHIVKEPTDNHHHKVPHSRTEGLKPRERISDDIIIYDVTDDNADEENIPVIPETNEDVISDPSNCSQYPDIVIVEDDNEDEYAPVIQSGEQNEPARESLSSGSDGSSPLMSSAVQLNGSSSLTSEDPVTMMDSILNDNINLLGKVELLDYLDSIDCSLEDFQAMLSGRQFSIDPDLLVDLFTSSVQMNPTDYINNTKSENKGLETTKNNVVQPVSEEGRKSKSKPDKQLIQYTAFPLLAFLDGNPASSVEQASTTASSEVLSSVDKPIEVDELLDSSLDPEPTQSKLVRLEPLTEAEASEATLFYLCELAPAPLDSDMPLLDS
Sequence of CBP-HA, Q92793 1-2442 (natural protein) (Q92793 whole entry): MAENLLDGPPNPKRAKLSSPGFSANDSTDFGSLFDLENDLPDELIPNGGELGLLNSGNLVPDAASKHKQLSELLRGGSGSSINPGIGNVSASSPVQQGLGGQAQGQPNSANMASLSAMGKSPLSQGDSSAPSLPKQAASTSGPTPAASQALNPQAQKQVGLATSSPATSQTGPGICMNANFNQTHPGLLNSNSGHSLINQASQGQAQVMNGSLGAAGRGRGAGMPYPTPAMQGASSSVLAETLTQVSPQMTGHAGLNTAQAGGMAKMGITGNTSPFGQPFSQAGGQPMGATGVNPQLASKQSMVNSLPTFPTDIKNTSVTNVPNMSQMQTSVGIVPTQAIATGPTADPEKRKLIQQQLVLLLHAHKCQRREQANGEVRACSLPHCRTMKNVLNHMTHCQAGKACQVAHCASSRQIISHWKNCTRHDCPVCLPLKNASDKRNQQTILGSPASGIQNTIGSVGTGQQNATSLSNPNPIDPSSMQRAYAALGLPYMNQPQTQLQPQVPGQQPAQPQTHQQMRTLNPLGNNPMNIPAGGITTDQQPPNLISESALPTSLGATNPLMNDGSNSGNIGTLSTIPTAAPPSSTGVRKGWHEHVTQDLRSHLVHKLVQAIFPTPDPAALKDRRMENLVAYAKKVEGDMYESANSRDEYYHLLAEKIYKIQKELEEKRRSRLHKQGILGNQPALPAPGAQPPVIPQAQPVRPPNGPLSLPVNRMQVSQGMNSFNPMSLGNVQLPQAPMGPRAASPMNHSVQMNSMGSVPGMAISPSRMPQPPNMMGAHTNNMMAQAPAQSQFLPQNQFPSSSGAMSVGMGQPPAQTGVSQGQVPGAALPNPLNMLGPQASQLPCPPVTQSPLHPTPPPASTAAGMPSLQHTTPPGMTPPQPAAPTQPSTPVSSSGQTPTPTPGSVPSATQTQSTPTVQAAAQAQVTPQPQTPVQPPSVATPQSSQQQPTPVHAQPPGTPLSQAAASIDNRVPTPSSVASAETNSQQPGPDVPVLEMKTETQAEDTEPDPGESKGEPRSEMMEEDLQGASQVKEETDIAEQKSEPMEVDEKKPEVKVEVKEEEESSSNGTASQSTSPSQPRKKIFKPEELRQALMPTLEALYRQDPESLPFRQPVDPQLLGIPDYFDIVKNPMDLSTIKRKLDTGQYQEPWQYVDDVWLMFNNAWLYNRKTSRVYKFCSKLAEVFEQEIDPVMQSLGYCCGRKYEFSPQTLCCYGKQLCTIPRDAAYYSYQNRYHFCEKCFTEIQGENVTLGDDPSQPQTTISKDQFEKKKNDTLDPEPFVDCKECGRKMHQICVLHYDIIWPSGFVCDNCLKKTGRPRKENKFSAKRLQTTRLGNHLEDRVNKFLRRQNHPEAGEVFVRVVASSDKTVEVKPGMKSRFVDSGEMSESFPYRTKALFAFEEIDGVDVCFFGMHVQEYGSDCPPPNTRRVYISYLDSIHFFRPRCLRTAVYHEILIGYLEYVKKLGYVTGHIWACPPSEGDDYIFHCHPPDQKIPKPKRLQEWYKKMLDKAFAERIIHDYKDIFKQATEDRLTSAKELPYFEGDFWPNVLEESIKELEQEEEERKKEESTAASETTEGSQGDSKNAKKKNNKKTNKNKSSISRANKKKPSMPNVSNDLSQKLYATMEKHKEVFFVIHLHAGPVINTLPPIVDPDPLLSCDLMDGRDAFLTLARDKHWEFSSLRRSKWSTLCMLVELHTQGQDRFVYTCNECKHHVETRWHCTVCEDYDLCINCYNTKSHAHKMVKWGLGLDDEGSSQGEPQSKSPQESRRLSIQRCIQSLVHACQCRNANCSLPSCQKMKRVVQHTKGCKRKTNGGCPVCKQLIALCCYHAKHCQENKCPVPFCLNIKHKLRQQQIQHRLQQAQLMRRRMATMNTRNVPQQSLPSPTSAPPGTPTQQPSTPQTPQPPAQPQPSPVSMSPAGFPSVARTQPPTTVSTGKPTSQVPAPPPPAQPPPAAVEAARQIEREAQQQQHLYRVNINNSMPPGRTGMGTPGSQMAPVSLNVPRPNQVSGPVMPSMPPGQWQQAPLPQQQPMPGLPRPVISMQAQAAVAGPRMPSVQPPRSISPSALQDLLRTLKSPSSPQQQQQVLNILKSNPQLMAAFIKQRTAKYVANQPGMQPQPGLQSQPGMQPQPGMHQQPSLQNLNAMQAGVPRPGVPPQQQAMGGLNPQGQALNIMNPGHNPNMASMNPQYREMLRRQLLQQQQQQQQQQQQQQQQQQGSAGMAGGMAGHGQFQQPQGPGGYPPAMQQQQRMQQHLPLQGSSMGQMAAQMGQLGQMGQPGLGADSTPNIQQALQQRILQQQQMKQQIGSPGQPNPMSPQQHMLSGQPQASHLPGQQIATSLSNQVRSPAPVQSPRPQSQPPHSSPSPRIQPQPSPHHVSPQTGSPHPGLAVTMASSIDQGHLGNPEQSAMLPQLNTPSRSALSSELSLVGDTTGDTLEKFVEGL

In turn, CBP-HA, Q92793 1-2442 (natural protein) came in with a percent of cells showing co-recruitment to the HSF2-YFP focus of 68.4%.
As for “endogenous CBP of BHK cells (natural protein)”, the percent of cells showing co-recruitment with HSF2-YFP came out at 43.9%.
EP300-HA, Q09472 1-2414 showed a percent of cells showing co-recruitment to the HSF2-YFP focus of 48.6%.

Source of the values: publication doi:10.1101/481457.
